Measurements taken from the nanobody polyreactivity screen of Harvey et al. (2022).

Assay: yeast display, Sf9 membrane polyspecificity reagent, FACS + sequencing; frameworks hold sequencing errors
Summary of the method: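 A synthetic nanobody library was expressed on Saccharomyces cerevisiae BJ5465 by galactose induction for 36–48 hours. The library was stained for 1 hour at 4 °C with 10% biotinylated, detergent-solubilized Sf9 membrane reagent and enriched with streptavidin microbeads before FACS. Low and high (top ~1%) gates were set on anti-HA fluorescence for expression and streptavidin fluorescence for reagent binding, and each polyreactivity label reflects the gate of origin.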

Sequence	polyreactivity (PSR sort gate)
QVQLVESGGGLVQAGGSLRLSCAASGITFSYNAMGWYRQAPGKERELVAAIRVGDGSTYYADSVKGRFTISRDNAKNTVYLQMNSLKPEDTAVNYCNARYLRLRYPYTDEYNYWGQGTQVTVSS	low polyreactivity
QVQLVESGGGLVQAGGSLRLSCAASGITFSYYAMGWYRPAPGKERELVAAISRTGTSTYYADSVKGRFTISRDNAKNTVYFQMNSLKPEDTAVYYCAAVPRHPYHDKYDYWGQGTQVTVSS	high polyreactivity
QVQLVESGGGLVQAGGSLRLSCAASGITFSYYAMGWYRQAPGKEREFVAAISWSGGSTYYADSVKGRFTISRDNAKNTVYLQMNSLKPEDTAVYYCAADRYPYGLDYWGQGTQVTVSS	high polyreactivity
QVQLVESGGGLVQAGGSLRLSCAASGITFSYYAMGWYRQAPGKERELVAAISRTGTSTYYADSVKGRFTISRDNAKNTVYLQMKSLKPEDTAVYDCAAVPRHPYHDKYDYWGQGTQVTVSS	high polyreactivity
QVQLVESGGGLVQAGGSLRLSCAASGITFTDYAMGWYRQAPGKERELVAAITGSGTSTYYADSVKGRFTISRDNAKNTVYLQMNSLKPEDTAVYYCAARTRGTAYNYWGQGTQVTVSS	high polyreactivity
QVQLVESGGGLVQAGGSLRLSCAASGITFTDYDMGWYRQAPGKERELVAAISNGGGSTYYADSVKGRFTISRDNAKNTVYLQMYSMKPEDTAVYYCAAERVPSWWVEWGVAQWDDYWGQGTQVTVSS	low polyreactivity
QVQLVESGGGLVQAGGSLRLSCAASGITFTGFAMGWYRQAPGKERELVAAITWSSGSTYYADSVKGRFTISRDNAKNTVYLQMNSLKPEDTAVYYCNAGYWYDGPDYIPEYDYWGQGTQVTVSS	low polyreactivity
QVQLVESGGGLVQAGGSLRLSCAASGITFTGYAMGWYRQAPGKERELVAAITWSSGSTYYADSVKGRFTISRDNAKNTVYLQMNSLKPEDTAVYYCNTDYGRYLYYRYGYWGQGTQVTVSS	low polyreactivity
QVQLVESGGGLVQAGGSLRLSCAASGITFTKYVMRWYRQAPGKERELVATIRWGASSTHYADSVKGRFTISRDNAKNTVYLQMNSLKPEDTAVYYCNADGWYGAVYWWFYGFDYWGQGTQVTVSS	low polyreactivity
QVQLVESGGGLVQAGGSLRLSCAASGITFTQYAMGWYRQAPGKERELVAAISKRGGRTYYADSVKGRFTISRDNAKNTVYLQMNSLKPEDTAVYYCATVPYGEVDYWGQGTQVTVSS	high polyreactivity
QVQLVESGGGLVQAGGSLRLSCAASGITFTRNAMGWYRQAPGKERELVAVITSSGRTKYADSVKGRFTISRDNAKNTVYLQMNSLKPEDTAVYYCAKVLFGTVPYGYWGHGTQVTVSS	high polyreactivity
QVQLVESGGGLVQAGGSLRLSCAASGITFTSYAMGWYRQAPGKERELVAAISWSGDRTYYADSVKGRFTISRDNAKNTVYLQMNSLKPEDTAVYYCAAEWVSPWTGPGFDYWGQGTQVTVSS	high polyreactivity
QVQLVESGGGLVQAGGSLRLSCAASGITFTTYAMGWYRQAPGKERELVATINRGSRTNYADSVKGRFTISRDNAKNTVYLQMNSLKAEDTAVYYCAAHYTTFIPSPDGDYLGQGTQVTVSS	low polyreactivity
QVQLVESGGGLVQAGGSLRLSCAASGITFTYYAMGWYRQAPGKVRELVAGISSGTRTYYADSVKGRFTISRDNAKNTVYLQMNSLKPEDTAVYYCAARTGSRYSRGDYWGHGTQVTVSS	high polyreactivity
QVQLVESGGGLVQAGGSLRLSCAASGITFVDYDMGWYRQAPGKERELVAAITTGSSTYYADSVKGRFTISRDNAKNTVYLQMNSLKPEDTAVYYCARVFEYDYYQQWSYGYWGQGTQVTVSS	low polyreactivity
QVQLVESGGGLVQAGGSLRLSCAASGITFVFYAMGWYRQAPGKERELVAAISTGGSTNYADTVKGRFTISRDNAKNTVYFQMNSLKPEDTAVYYCAAQYFISISKYDYWGQGTQVTVSS	low polyreactivity
QVQLVESGGGLVQAGGSLRLSCAASGITFVGYAMGWYRQAPGKERELVAVINTSSSTYYADSVKGRFTISRDNAKNTVYLQMNSLKPVDTAVYYCADYAYYRYFIPAVLYDYWGQGTQVTVSS	low polyreactivity
QVQLVESGGGLVQAGGSLRLSCAASGITFVHYAMGWSRQAPGKERELVAAITVGDGGTYYADSVKGRFTISRDNAKNTVYLQMNSLKPEDTAVYYCAAGFYSYSWYVKLAYGYWGQGIQVTVSS	low polyreactivity
QVQLVESGGGLVQAGGSLRLSCAASGITFVKNVMGWYRQAPGKERELVAAISTIGARTYYADSVKGRFTISRDNAKNTVYLQMNSLKPEDTAVYYCAAENYPRRPRYDYWGQGTQVTVSS	high polyreactivity
QVQLVESGGGLVQAGGSLRLSCAASGITFVRYAMGWYRQAPGKERELVAAINFSGGNTYYADSVKGRFTISRDNAKNTVYLQMNSLKPEDTAVYYCNAKRNYVRGRQGDWYIGYGYWGQGTQVTVSS	high polyreactivity
QVQLVESGGGLVQAGGSLRLSCAASGITFVRYAMGWYRQAPGKERELVAAINSDGNTYYADSVKGRFTISRDTAKNTVYLQLNSLKPEDTACYYCAAGQGAGVDYWGQGTQVTVSS	high polyreactivity
QVQLVESGGGLVQAGGSLRLSCAASGITFVYYAMGWYRQAPGKERELVAGIDWSGGSTYYADSVKGRFTISRDNAKNTVYLQMNSLKPEDTAVYYCAAEFWLSTDFYYWGQGTQVTVSS	high polyreactivity

Sequence	polyreactivity (PSR sort gate)
QVQLVESGGGLVQAGGSLRLSCAASGITFVYYTMGWYRQAPGKERELVASITWDGGSTYYADSVKGRFTISRDNAKNTVYLQMNSLKPEDTAVYYCNRDRVSGGKYNYWGQGTQVTVSS	low polyreactivity
QVQLVESGGGLVQAGGSLRLSCAASGITFWQNTMGWYRQAPGKERELVAAISWTGGRTYYADSVKGRFTISRDNAKNTVYLQMNSLKPEDTAVYYCNTGHEEDEDDYWGQGTQVTVSS	low polyreactivity
QVQLVESGGGLVQAGGSLRLSCAASGITFWRYALGWYRQAPGKEMELVAASRWSGSTYADSVKGRFTISRDNAKNTVYLQMNSLKPEDTAVYYCAAYPIGGYHDMDYWGQGTQVTVSS	high polyreactivity
QVQLVESGGGLVQAGGSLRLSCAASGITFWTYAMGWYRQAPGKERELVARISKSGARTFYADSVKGRFTLSRDNAKNTVYLQMNSLKPEDTAVYYCAADFRSNYDYWGQGTQVTVSS	high polyreactivity
QVQLVESGGGLVQAGGSLRLSCAASGITFWYNAMGWYRQAPGKERELVAAITRTGSTNYADSVKGRFTISRDNAKNTVYLQMNSLKPEDTAVYYCAAYLGWPWGYYSWGQGTQVTVSS	high polyreactivity
QVQLVESGGGLVQAGGSLRLSCAASGITFWYYAMGWYRQAPGKERELVAAITRSGRTNYADSVKGRFTISRDNAKNTVYLQMNSLKPEDTAVYYCAVYLYSFSPRYYYWGQGTQVTVSS	low polyreactivity
QVQLVESGGGLVQAGGSLRLSCAASGITFWYYAMGWYRQEPGKERELVAAISSSGGRTTYADSVKGRFTISRDNAKNTVYLQMNSLKPEDTAVYYCNADRRRYQHRRGSSVYLYDYWGQGTQVTVSS	high polyreactivity
QVQLVESGGGLVQAGGSLRLSCAASGITFYAYVMGWYRQAPGKERELVAAISGGGSTYYADSVKGRFTISRDNAKNTVYLQMNSLKPEDTAVYYCNAELSFWDLGYDYWGQGTQVTVSS	low polyreactivity
QVQLVESGGGLVQAGGSLRLSCAASGITFYDNAMGWYRPAPGKEWELVAGISYDGDSTYADSVKGRFTISRDNAKNTVYLQINSLKPEDTAVYYCAALGPYDWLWAGDYWGQGTQVTVSS	low polyreactivity
QVQLVESGGGLVQAGGSLRLSCAASGITFYDNVMGWYRQAPGKERELVAAITSGGSTNYADSVKGRFTISRDNAKNTVYFQMNRLKPEDTAVYYCAAQPRVDYEFPYRYGYWGQGTQVTVSA	low polyreactivity
QVQLVESGGGLVQAGGSLRLSCAASGITFYDYAMGWYRPAPGKERELVAAINSGDSTNYADSVKGRFTISRDNAKNTVYLQMNSLKPEDTAVYYCAADRYYYSWYTIWYRERIYYWGQGTQVTVSS	low polyreactivity
QVQLVESGGGLVQAGGSLRLSCAASGITFYDYAMGWYRQAPGKERELVAAISDSGGITYYADSVKGRFTISRDNAKNTVYLQMNSLKPEDTAVYFCAAEDQLNRDYWGQGTQVTVSS	high polyreactivity
QVQLVESGGGLVQAGGSLRLSCAASGITFYDYAMGWYRQAPGKERELVASIDNSGGSTYYADSVKGRFTISRDNAKNTVYLQMNSLNPEDTAVYYCAAVSRYYFLGVAFLDDYWGQGTQVTVSS	high polyreactivity
QVQLVESGGGLVQAGGSLRLSCAASGITFYEYAMGWYRQAPGKEREFVAAIDDGDSSTYYADSVKGRFTISRDNAKNTVYLQMHSLKPEDTAVYYCNADPYYVYSLNWGDFWGQGTQVTVSS	low polyreactivity
QVQLVESGGGLVQAGGSLRLSCAASGITFYEYTMGWYRQAPGKERELVAVIRKTGGSTYYADSVKGRFTISRDNAKNTVYLQMNSLKPEDTAVYYCAARKRYQRGYWGQGTLVTVSS	high polyreactivity
QVQLVESGGGLVQAGGSLRLSCAASGITFYFNAMGWYRQAPGKERELVAAITFSGSSTYYADSVKGRFTISRDKAKNTVYLQMNSLKPEDTAVYYCAAYFTRYDFRWHTYYYWGEGTQVTVSS	low polyreactivity
QVQLVESGGGLVQAGGSLRLSCAASGITFYFNAMGWYRQAPGKERELVAVITSGGSTNYADSVKGRFTISRDNAKNTVYLQMNSLKPEDTAVYYCANDKSYSSWSAQYDYWGQGTHVTVSS	low polyreactivity
QVQLVESGGGLVQAGGSLRLSCAASGITFYFYAMGWSRQAPGKERELVSTISGGGSTSYADSVKGRFTISRDNAKNSVYLQMNSLKPEDTAVYYCAATGYSLRSGKRRPLRSGYYYWGQGTQVTVSW	high polyreactivity
QVQLVESGGGLVQAGGSLRLSCAASGITFYFYAMGWYRQAPGKERELVASITSSGSTDYADSVKGRFTISRDNAKNTVYLQMNSLKPEDTAVYYCAADVQNHFYSFGDERGFPFDYWGQGTQVTVSS	low polyreactivity
QVQLVESGGGLVQAGGSLRLSCAASGITFYGNAMGWYRQAPGTERELVAAITGGGGTNYADSVKGRFTISRDNAKNTVYLQMNSLKPEDTAVYYCNRDYFVWFQRGQYKRGSSWYDYWGQGTQVTVSS	low polyreactivity
QVQLVESGGGLVQAGGSLRLSCAASGITFYGYAMGWSRPAPGKERELVAVITSSGSSTYYADSVKGRFTISRDKAKNTVYVQMNSLKPEDTAVYDCNARPGRRSLRSRTYDYWGQGTQVTVSS	high polyreactivity
